The Immune Epitope Database (IEDB)

What was measured:
[1] = target: HLA-A*02:06; test: IEDB peptide-MHC binding, purified MHC/competitive/fluorescence; filed as Kd, often an IC50 or EC50 that approximates it; ≥ and ≤ were set here for values at or beyond the usual limits of such assays
[2] = target: HLA-A*11:01; test: as above; details: source organism: Lyssavirus rabies
[3] = target: HLA-B*15:09; test: as above; details: source organism: Lyssavirus rabies
[4] = target: HLA-B*15:17; test: as above
[5] = target: HLA-A*30:01; test: as above; details: source organism: Lyssavirus rabies
[6] = target: HLA-A*31:01; test: as above; details: source organism: Lyssavirus rabies
[7] = target: HLA-A*69:01; test: IEDB peptide-MHC binding, purified MHC/direct/fluorescence; filed as Kd, often an IC50 or EC50 that approximates it; ≥ and ≤ were set here for values at or beyond the usual limits of such assays; details: source organism: Lyssavirus rabies
[8] = target: HLA-B*18:01; test: as above
[9] = target: HLA-B*57:01; test: as above
[10] = target: HLA-B*08:01; test: as above; details: source organism: Lyssavirus rabies
[11] = target: HLA-B*58:01; test: as above
[12] = target: HLA-B*27:05; test: as above
[13] = target: HLA-B*73:01; test: as above; details: source organism: Lyssavirus rabies
[14] = target: HLA-B*48:01; test: as above
[15] = target: HLA-A*68:02; test: as above; details: source organism: Lyssavirus rabies
[16] = target: HLA-A*03:01; test: as above
[17] = target: HLA-B*15:01; test: as above
[18] = target: HLA-A*26:03; test: as above; details: source organism: Lyssavirus rabies
[19] = target: HLA-A*02:01; test: as above
[20] = target: HLA-B*07:02; test: as above
[21] = target: HLA-A*01:01; test: as above
[22] = target: HLA-A*69:01; test: IEDB peptide-MHC binding, purified MHC/competitive/fluorescence; filed as Kd, often an IC50 or EC50 that approximates it; ≥ and ≤ were set here for values at or beyond the usual limits of such assays; details: source organism: Orthomarburgvirus marburgense
[23] = target: HLA-A*26:02; test: as above; details: source organism: Orthomarburgvirus marburgense
[24] = target: HLA-A*68:02; test: as above; details: source organism: Orthomarburgvirus marburgense
[25] = target: HLA-B*35:01; test: as above; details: source organism: Orthomarburgvirus marburgense
[26] = target: HLA-A*26:03; test: as above; details: source organism: Orthomarburgvirus marburgense
[27] = target: HLA-A*02:01; test: as above; details: source organism: Orthomarburgvirus marburgense
[28] = target: HLA-A*11:01; test: IEDB peptide-MHC binding, purified MHC/direct/fluorescence; filed as Kd, often an IC50 or EC50 that approximates it; ≥ and ≤ were set here for values at or beyond the usual limits of such assays; details: source organism: Marburg virus - Musoke, Kenya, 1980
[29] = target: HLA-B*08:02; test: as above; details: source organism: Ravn virus - Ravn, Kenya, 1987
[30] = target: HLA-A*31:01; test: as above; details: source organism: Marburg virus - Musoke, Kenya, 1980
[31] = target: HLA-B*40:01; test: as above; details: source organism: Marburg virus - Musoke, Kenya, 1980
[32] = target: HLA-B*46:01; test: as above; details: source organism: Marburg virus - Musoke, Kenya, 1980
[33] = target: HLA-B*18:01; test: IEDB peptide-MHC binding, purified MHC/competitive/fluorescence; filed as Kd, often an IC50 or EC50 that approximates it; ≥ and ≤ were set here for values at or beyond the usual limits of such assays; details: source organism: Zaire ebolavirus
[34] = target: HLA-A*26:01; test: as above; details: source organism: Zaire ebolavirus
[35] = target: HLA-A*03:19; test: as above; details: source organism: Zaire ebolavirus
[36] = target: HLA-B*57:01; test: as above; details: source organism: Zaire ebolavirus
[37] = target: HLA-B*39:01; test: as above; details: source organism: Zaire ebolavirus
[38] = target: HLA-B*27:03; test: as above; details: source organism: Zaire ebolavirus
[39] = target: HLA-B*45:06; test: as above; details: source organism: Zaire ebolavirus
[40] = target: HLA-C*06:02; test: as above; details: source organism: Zaire ebolavirus
[41] = target: HLA-B*83:01; test: as above; details: source organism: Zaire ebolavirus
[42] = target: HLA-B*15:01; test: as above; details: source organism: Zaire ebolavirus
[43] = target: HLA-B*15:42; test: as above; details: source organism: Zaire ebolavirus
[44] = target: HLA-B*46:01; test: as above; details: source organism: Zaire ebolavirus
[45] = target: HLA-A*24:03; test: IEDB peptide-MHC binding, purified MHC/direct/fluorescence; filed as Kd, often an IC50 or EC50 that approximates it; ≥ and ≤ were set here for values at or beyond the usual limits of such assays; details: source organism: Zaire ebolavirus
[46] = source organism: Lyssavirus rabies
[47] = source organism: Orthomarburgvirus marburgense
[48] = source organism: Marburg virus - Musoke, Kenya, 1980

RQMKSGGRF
Kd [1, 46]: 0.476 µM | Kd [2]: ≥ 20 µM | Kd [3]: ≥ 20 µM | Kd [4, 46]: 0.631 µM | Kd [5]: ≥ 20 µM | Kd [6]: ≥ 20 µM | Kd [7]: ≥ 20 µM | Kd [8, 46]: ≥ 20 µM | Kd [9, 46]: ≥ 20 µM | Kd [10]: ≥ 20 µM | Kd [11, 46]: ≥ 20 µM | Kd [12, 46]: 0.275 µM | Kd [13]: ≥ 20 µM | Kd [14, 46]: 1.62 µM | Kd [15]: ≥ 20 µM | Kd [16, 46]: ≥ 20 µM | Kd [17, 46]: 0.119 µM | Kd [18]: ≥ 20 µM | Kd [19, 46]: ≥ 20 µM | Kd [20, 46]: ≥ 20 µM | Kd [21, 46]: ≥ 20 µM

TVLEFILQK
Kd [1, 47]: 0.776 µM | Kd [22]: 0.827 µM | Kd [23]: ≥ 20 µM | Kd [4, 47]: ≥ 20 µM | Kd [24]: 3.88 µM | Kd [25]: ≥ 20 µM | Kd [26]: ≥ 20 µM | Kd [27]: 1.17 µM | Kd [8, 48]: ≥ 20 µM | Kd [28]: 0.0023 µM | Kd [9, 48]: ≥ 20 µM | Kd [29]: ≥ 20 µM | Kd [11, 48]: ≥ 20 µM | Kd [12, 48]: ≥ 20 µM | Kd [14, 48]: ≥ 20 µM | Kd [16, 48]: 0.141 µM | Kd [30]: 0.119 µM | Kd [17, 48]: ≥ 20 µM | Kd [31]: ≥ 20 µM | Kd [20, 48]: ≥ 20 µM | Kd [32]: ≥ 20 µM | Kd [21, 48]: ≥ 20 µM

VLYHRYNLV
Kd [33]: ≥ 20 µM | Kd [34]: ≥ 20 µM | Kd ([4]; source organism: Zaire ebolavirus): ≥ 20 µM | Kd [35]: 0.0044 µM | Kd [36]: ≥ 20 µM | Kd [37]: ≥ 20 µM | Kd [38]: ≥ 20 µM | Kd [39]: ≥ 5 µM | Kd [40]: 0.804 µM | Kd [41]: ≥ 5 µM | Kd [42]: ≥ 20 µM | Kd [43]: ≥ 5 µM | Kd [44]: ≥ 20 µM | Kd ([19]; source organism: Sudan ebolavirus - Maleo (1979)): 0.0181 µM | Kd [45]: ≥ 20 µM
